Publication PMC4963209 (2016)

Molecular target: T1, Juno (UniProt Q9EQF4 20-222)
T1 chain: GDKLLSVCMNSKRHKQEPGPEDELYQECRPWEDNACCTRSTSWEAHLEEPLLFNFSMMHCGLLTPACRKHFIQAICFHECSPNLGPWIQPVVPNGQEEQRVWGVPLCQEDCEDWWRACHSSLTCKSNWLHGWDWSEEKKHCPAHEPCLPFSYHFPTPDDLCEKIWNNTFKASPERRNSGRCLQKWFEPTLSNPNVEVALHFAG
Experiment: MST

Kd: 620 nM
B1: Izumo1 ectodomain (domain or fragment)
chain: CIKCDQFVTDALKTFENTYLNDHLPHDIHKNVMRMVNHEVSSFGVVTSAEDSYLGAVDENTLEQATWSFLKDLKRITDSDLKGELFIKELLWMLRHQKDIFNNLARQFQKEVLCPNKCGVMSQTLIWCLKCEKQLHICRKSLDCGERHIEVHRSEDLVLDCLLSWHRASKGLTDYSFYRVWENSSETLIAKGKEPYLTKSMVGPEDAGNYRCVLDTINQGHATVIRYDVTVLPPKHSEENQPPNIITQEEHETPVHVTPQTPPGQEPESELYPELHPELYPELIPTVAQNPEKKMKTR
modifications: N-acetylglucosamine attached to N204 (seen in the crystal structure)
